In the NTF2 design screens of Basanta et al. (2020):

Assay: protease stability score; higher = more stable; yeast display proteolysis, trypsin and chymotrypsin;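 note: relative to predicted unfolded state with 0 unfolded-like and 1 meaning tenfold more protease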
For “HEHEEMSELWLRIFERSVDTGDWNTLIELADPNVRQDYNGREYHGRESFVHTMREDIHRADHIEFHIDRFRVIGDKLDIDGTIIIRINGQTLIYRSHLHILKYDGRWIIKEVRFK”, the protease stability score was 1. In the case of “DEEHKEREDVAREIITLLLTGDEEIWLSMMDPHTRININGKYAIGRENIEEIIKDLLRRIPNIRIIMQDMKIQGDKVTIHGIHNVNGREHEWRVHIISVNGRIKSIEVRIH”, the protease stability score is reported as 1.47. Sequence “NEMDEHARHFAELFLRLMRTGDEETTEKLADPHVKVVIGDFEFHGWKMLSIFLREIRIHDIRLEDHRTQGNKSIIHGRTDGEINGQRYETELYIELHLVNGRLKSMRFEWR” has a protease stability score of 0.698. Work on “NEWQEILLRISEKILKDLFTGNEEVWEKLVDPDAQVHINGKEVHGREEALHFLKELKDELRVEHLFIRDVKLQGDKVSLTSESRGNVNGVRRDMKVEIIVIVINGRVKHEKFIII” yielded a protease stability score of 1.37. For “DHEEEQVRLAFEIFKTLQETGDEELLHHFFDPNARSDVDGREVVGRHAVEEWQRDLGVDHIHVHKFTFIDGRVEMHFTYTQGDKVIKVHIYVHKVDGKWDMHRIHVR”, the protease stability score was 1.24. In the case of “KEEEEKLERLAELVIELFLTGDWKTLHSLLDPHYRSEIDGRTVHGRESHQTLLEEILRHLRIRRVHIEEYRIIDGVAWIDSRITLEINGRTVDTHMHIHLEFFNGRLHSIRVEIH”, the protease stability score is reported as 2.47. “DEKYKRVEQAVRIYLELISTGDEEMISHYVDPNVQAEVGDYEHHGMEEFIKVVSRVDYLEHSEWKDWRYVDGRIEIEGHLYGKINGKRDVLDIRIIASKVNGKWRLHKVTIK” showed a protease stability score of 1.41. For “SEMEETAKTVYKRWFDMLHTGDEELLTRFMDPHVRVQQGDKEIVGWELVVTHNRHLRYEDSHLKDIETQGDKVIIRGELVLTIGDKRFTIDVEILAQKVDGRWILKSVRFS”, the protease stability score was 0.035. “DEDHKIVEHMVKLIIDSMHTGDEHSIRELFDPNTRMDVNGVDFHGWEHYHKRIEDLRKRADHVTIYIRDMKVINGQAHIHTEMRIDIGDKHLRHRVIIIVLKVDGRWVIEQVIFL” showed a protease stability score of 2.29. Work on “SEDEEELERELRLWLSLVLTGDEDIIRELADPHARSRVNGQKSHGRENLLQLFREHMEIMGAKVVDIEEYHIQGEKIILIMRVHVGDKEYELRIEIHVFNGRLKEVNLHFK” yielded a protease stability score of 1.52. With “SDEEKDAKRAIEIYLRMVETGDEETSKELMDPNVRMHVNGQDVHGRERVAKLFHELSRRIDHHEVRLDRWDVQGDKLIIHTEIIWRVNGVEIRRRTLIIMRKFNGRWYIEELNIE” the protease stability score was 0.181. In the case of “DESEETAVRMFKHWIRMIETGDEDSLEELADPNVRLEVNGQEVHGRELFLRFFLEMRIKRVRLRHIETQGEKLIIHGELDGEINGRRQETRVIIIVRKVDGKWIIKSIRIE”, the protease stability score is reported as 2.76. With “DEDEEQTRRAWKINLEQWLTGDEELLDRNLDPDVRNDVNGVRLHGMELLTEMLHRFIEKLKGATIRLKDFRLRFYGNKIEVRVETIVHVNGVQIHVELIFIATKVDGRWRIHEISHHNR” the protease stability score was 0.868. With “DDETEYAREASEMWVKLLITGDEEIREEYIDPHAKMDQGEYEYHGREQVSRFSKKLIDTMGVKHFDIKSIEIQGDKVILFMHEHFENRRVDLIFYSRKFDGRWHYRRMEVIHR” the protease stability score was 0.543. “TEKEEIVEETMKQLLHAEETGDWRTIEHLLDPNTRIIVEFNGVEIVLHGREEAVKFMFDFARHWRIKDFKVESIDIQGNKVHMRIRVDMEFNGKHIRTETNIHTVVVDGRIKSHERRVE” showed a protease stability score of 1.63. “DELDKRTREFTRLFLEWEETGDFHTMLNFLDPNARVDVNGVHLIGREKMVEHFLTEHERIDHREWHLRRIHYYDGRSDIDGHITLFVDGQEIHIRVHVIFFVVDGRMHMVEKRII” gave a protease stability score of 0.751. “DDEEKRYRLFYKIALTMFETGDWQILHELADPHVKVRVGDKDLHGREELTHFWKELVERYPNMKIRLDDLSLQGEKIHIEGTWHFDGKELTTHIDLIMVDGKLKETRYEHK” showed a protease stability score of 1.4. With “NEEHEVLERVVELFMEILDTGNERLSRELVDPHVRVIIGDKELHGREQVARFHKELHERVDHWEIHIRRIEFQGDKLHMDFELRNDYNGVRITTDLIILVKKVNGVWKLRAREVR” the protease stability score was 0.271. “DEEHREAREAVEDDLRELITGNWDMLRRNLDPRMRLNIDGQDIHGRESVHKRWVELMEELGIDHLELHRVDVIDGRIHTDGHERVDGKHIKVLIVAVKINGRWIIKRLHVH” gave a protease stability score of 0.675. For “DHEEEKLKESLDRLEDINRTGDWHKIHDMLDPHVRVLVNGRKHHGRETATHIYREWRITDIQFKDIRLIGDKVHIHMESRVSVNGREHSVKSELILIKVDGQWYMHAEQFL”, the protease stability score was 1.05. With “DEDEHDSEIAVKLFVRHMETGDEDVLREYADPRTKILVNGRETHGWETYVKHMQETINKLGVKHTHFELKDVEVQGEKIIAHVRIELNFENHHTTINMILIIHKVDGRWHLKKMKIK” the protease stability score was 0.871. “TEDDEILREALEIWRYVEQTGDEEDTHRMVDPHAKMIFNGKEIHGREHISRWMKEIRIHELRVHSFRVIDGRLILEVELVGRFNGREDTIEVEIISEKVDGRWVVSSLTIR” gave a protease stability score of 1.29. For “SEEERMTHEATRDLIETILTGDENILRKLADPNMIINVRQGEKDIRIHGRHDYIRWVKLLGVDHVQVRDIHFQGDKATIHLEVEVNGRSINMIIIMRKVDGRWLITETREHHL”, the protease stability score was 1.09. In the case of “SEEEDTADEAIKLWLKLFITGDERTLARMMDPNTLNVVGDKEFHGWQFIIELVHKLFEEIRIHELTVEHLHVQGDKVRIDIRIDSRQGDKRHETKVEVILRKVNGRWTVEVIEIH”, the protease stability score is reported as 2.39. “DERLEIARRVVELSIRMLHTGNEEVVRHLLDPNYRLHINGVHLIGMEEFSKWLKELRFDLEHVQMHHITDINGRLFVIGEIIGRLHYDGVTVREERESIWFIEKVDGKWIIKEVELR” gave a protease stability score of 1.18. In the case of “SEEEEQAKEAVRHFIHKWQTGDEDRLKELLDPHTKIDIGDKHIHGREEATKLIRNELHRIKNIRVELRDIEVRVYDGVIELHIRGLEKYNGQEVHVTIILIFRKINGQWIIQSEHFHID”, the protease stability score is reported as 1.31. In the case of “DEEHRSSHHAVEVQFRVLHTGDFHDLRRQLDPDVKFHIDGVNDHGREVFEERVRELGIKHLLIEDHHVEIQGEWAHLRMKGLMEINGKEIKLHIRYLLLKVNGRWSAHTVSIHLE”, the protease stability score is reported as 1.36. Work on “DEDHKEVKHILRMWMENLYTGDEELNNRLLDPNARWEVNGRDIHGRELILKVLSNEYTEWRMKHIKIDHVENVNGQVHVDITIKYDINGQEINLRTHIRIYIINGKIHEIHISIH” yielded a protease stability score of 0.576. “DEEHEFLITMVKLVSTWFLTGDFETYIDLADPNTRQHVNGRYSVGREDAVKLEEEMLREIRIRDIRVKHIIRQGDKIELEFRFHMEVDGRVEDITVEVRIFLVNGRLHFLEIRFD” gave a protease stability score of 0.743. Sequence “SEIEHVVKRAIKIFIEVLETGDWELMWRLLDPHVRIEVGNKEKHGRHTIEEMIRRVDHIHINERQIHDIEIQGDKVHLHIHLNVEERVGDKRLNFEFELHIIAEKVNGRWIVRSVTIK” has a protease stability score of 1.62. In the case of “NERDERVEELMKLWFESLRTGDWRQMRNLLDPHARVIMLVGDKHVELHGWEAMLLLIHQFRNIRLRIDSTRLQGDKLEIEGTSEFDGKHRNVVIEIQVINGRIHTIKYIED”, the protease stability score is reported as 2.1. In the case of “DEDKEDLDDWFKRWEEALRTGDEKTLLRLMDPDTRLIFENHERHGMEEIFDMLHKHLNRVDHIHDFILRRDDSQGDKVRYDGQEDGIVDGVRDILKVIIYMIKIDGRWLMEELEFH”, the protease stability score is reported as 1.26. “EEDLEHILELSEYFIRAWSTGDWDTIHKYADPHVRSDINGVESHGMEEMIRVYEEIRVTIEHVHYDHVTVQGEKLIVDGRMDYRVDINGKKKEHRTRVEIHVDVVNGRIKSFVINYR” showed a protease stability score of 1.23. “SEEEKAFKESYDVWIEALKTGNEEESREMFDPTPLQVVNGQELHGRDHIEQEVSEWRIDHVDIDELRLQGDKAILHGRVSGHINGKRVKFEEKLVMHKIDGRWFIRSVIVR” gave a protease stability score of 0.333. Work on “DKEEEKSREFFRIFYELWLTGNEELNERLADPNVYVDINGQEIHGMHVAKNVLTRELEELRVKDIKIDDYKTQGEKAVFHGKWEGYVDGRDSMEHVTVILTVVDGKVDNMSIKFD” yielded a protease stability score of 0.97. With “DEEHEETHRWVELFIRHHLTGDEDFIMKMLDPNTRWHIDGRTFHGMETVFDARKKERNKLGADHVRFTSFEIQGDFLHILGSIHIDGKELDEKIIIEVIDGRLNSILVTRR” the protease stability score was 0.661. Sequence “SEMEEESHKVVEYATHVFATGDEHLMRKNFDPDVKLDYNGKHFHGWEEFVKLMQTLREKYGVKHVKRVEIEDIRIIGNKVEVDTRVVQNVDGVPFELEITLILIKIDGKWRNHSSRIR” has a protease stability score of 0.037. Sequence “SEEHEQLLRMAQIWIKNWLTGDEKSMIELADPRVLFIYGDKIHHGWEEMSKFLHRLMEEIRIEDLRIDSFRAYNGRVEHDTTIDVEIGDKRINLKHHFHLDVVDGRIRHVKVKID” has a protease stability score of 0.726. In the case of “DEEEHRVENMYHRWLHLWETGNEERLTELLDPNTRIVVGDKQIHGREEAHRVLQEFLKRADHIEEFRIHHLRVVGNKVESDTRLRGEIDGRDIDTRVHVHLLVIDGRLREINIQLE”, the protease stability score is reported as 1.57. In the case of “DEEERDAKEARDLLERSMDTGNEDLWKELLDPNMIIHIGDKEIHGMKEWIEFHKERGAETRVEFKDMRMQGNKLILRLNLKVHFDGQTYEHEVTYIVSKVDGVWLVKYIHIH”, the protease stability score is reported as 0.981. In the case of “SEEEEELRIANELVKRSLDTGDEDLERELADPNTRVNYGDKILHGRHEVVRWLRRIDHIHVHWRDVRIYNGRIEMDGRLVLRVGDKSFSLETRIYMEKVDGQWVIKDHEIR”, the protease stability score is reported as 0.314. “SEDDKREQDYHHYMMEIILTGDFKELFDLADPNVRLRIGDKHFHGRERMLDWYKHLSDRYKNARIHLHKKDYIGEKVIFHEIIHWNGKEVELHINMVIVNGRIRSIHVEDNER” gave a protease stability score of 1.39. In the case of “DEEEAHTRHILELFKHNYHTGDEDLFRRLLDPNVRLHIDGVNIHGREEVVEVLVKLAHEIRVELRVKHIRIINGVAEVDIELTIHQGDKHESRKIHLFILKVNGRWRVESIQWR”, the protease stability score is reported as 1.42. Work on “HEDEVFFKLILHLLLEDYRTGDWESLEKFLDPSYKLVFDGKDIHGRERAVTIMRHEAHEMRIEDYHIRSLETQGDKLLLHGKFQGIVNGQRRESEIHLVILKVDGRWLWHSVQIN” yielded a protease stability score of 1.01. “SEEHKLLRETLEILWDTIETGDEHKLSNLLDPRARLRVGDKEYHGREEVMRIMTEIRVDRFRLHSITLVDGRAIIHTEIDVRVNGQRFRTSVTIFLIKVDGRWFVESLQID” showed a protease stability score of 2.4. Sequence “DEEHRDLEHFMEIYEDALRTGDEKIIKFLLDPHVRFKQGNKQEHGWEAVYRYLHRFDVVKDVRFRIRSLEIQGDFLIVHYEVRYRGEINGQEHHVTIEYVIIVKKIDGKWLVHEVSIL” has a protease stability score of 1.62. Work on “SEDEEQARHFVEMLEHVERTGDWRELEKLVDPHVIMDIDGVRHHGRHEVVDLSKKLGVDHVSLEHLEVQGDKAIIHFNMHVNGVEMHHHVDTRKVNGRWLNERIILK” yielded a protease stability score of 0.488. With “DEEEEFAKELIEEVTKTILTGDFRTFLELFDPNARLEFNGREIHGMEDWLKMMDELRREIWIHHNHNHRIEVQGDKAHTESRLDVSYNGQRYTLHSRLSIDVVDGRLKRLEYRTK” the protease stability score was 1.5. With “SEEEHDTRNALKIIIRTLITGNEDERRKLLDPHVRLEFEGWHEHGRDAAHLLSFWYRERVDVLRDSKVEHVELQGDKIRMDIILISEYNGVHTSTHVHIVVEKFNGRWHMRSIFFL” the protease stability score was 1.16. “REDEREAEEFLRKLLHDIRTGDEESISRMIDPHVRVIYNGVEVIGRERALEVFKKFLEEIRIDTYHVHKVDMINGKMHADTRLRWEINGQRDTSTMLIVVEKVNGRWFLHSVVIS” gave a protease stability score of 1.97.
